# From the supplement of paper PMC9112550, “Optimization of the antimicrobial peptide Bac7 by deep mutational scanning” (BMC Biology, 2022)
# Tested on: Escherichia coli TOP10
# Assay: shrunken log2 fold change of peptide-encoding DNA abundance (4.5 h post-induction vs induction); higher = less antimicrobial activity (less host growth inhibition)
# Conditions: time post-induction: 4.5 h; library: site-saturation at positions 5, 18, 19, 20
# 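Note: peptides expressed intracellularly from a pBAD plasmid library in pooled LB shake-flask culture, induced with 0.3% L-arabinose, DNA abundance read by NGS, three biological replicates, DESeq2 with apeglm shrinkage.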
row,Sequence,shrunken log2 fold change
1,RRIRPRPPRLPRPRPRPNRDPRP,-0.271
2,RRIRMRPPRLPRPRPRPMEEPRP,2.45
3,RRIRIRPPRLPRPRPRPQSMPRP,-0.138
4,RRIRERPPRLPRPRPRPNRRPRP,-0.0103
5,RRIRIRPPRLPRPRPRPQCAPRP,-0.272
6,RRIRPRPPRLPRPRPRPMVVPRP,-0.153
7,RRIRGRPPRLPRPRPRPFGGPRP,0.401
8,RRIRTRPPRLPRPRPRPPLIPRP,0.0432
9,RRIRLRPPRLPRPRPRPPEQPRP,-0.0138
10,RRIRPRPPRLPRPRPRPPCDPRP,0.182
11,RRIRWRPPRLPRPRPRPRFHPRP,-0.293
12,RRIRVRPPRLPRPRPRPKTCPRP,0.021
13,RRIRMRPPRLPRPRPRPDMRPRP,0.0245
14,RRIRQRPPRLPRPRPRPFINPRP,-0.241
15,RRIRPRPPRLPRPRPRPSMFPRP,-0.437
16,RRIRCRPPRLPRPRPRPQSCPRP,0.0547
17,RRIRFRPPRLPRPRPRPVICPRP,0.0508
18,RRIRPRPPRLPRPRPRPITMPRP,-0.238
19,RRIRVRPPRLPRPRPRPWQHPRP,0.0882
20,RRIRFRPPRLPRPRPRPNTSPRP,-0.307
21,RRIRFRPPRLPRPRPRPSKRPRP,-0.565
22,RRIRNRPPRLPRPRPRPPCFPRP,-0.00581
23,RRIRTRPPRLPRPRPRPGELPRP,-0.108
24,RRIRVRPPRLPRPRPRPMAAPRP,0.287
25,RRIRQRPPRLPRPRPRPYTMPRP,-0.128

row,Sequence,shrunken log2 fold change
1,RRIRCRPPRLPRPRPRPHPQPRP,0.266
2,RRIRERPPRLPRPRPRPWCPPRP,-0.758
3,RRIRCRPPRLPRPRPRPAPLPRP,0.645
4,RRIRKRPPRLPRPRPRPLIIPRP,-0.501
5,RRIRHRPPRLPRPRPRPYSDPRP,-1.17
6,RRIRMRPPRLPRPRPRPCRWPRP,0.00911
7,RRIRFRPPRLPRPRPRPMMNPRP,-0.77
8,RRIRERPPRLPRPRPRPLFWPRP,0.219
9,RRIRTRPPRLPRPRPRPRYPPRP,-0.516
10,RRIRDRPPRLPRPRPRPRPDPRP,0.379
11,RRIRPRPPRLPRPRPRPMLEPRP,0.0664
12,RRIRTRPPRLPRPRPRPIMRPRP,0.25
13,RRIRKRPPRLPRPRPRPPCCPRP,0.39
14,RRIRYRPPRLPRPRPRPPWSPRP,-0.372
15,RRIRFRPPRLPRPRPRPVFRPRP,-0.362
16,RRIRRRPPRLPRPRPRPAAIPRP,0.181
17,RRIRVRPPRLPRPRPRPILWPRP,0.0127
18,RRIRTRPPRLPRPRPRPNTVPRP,-0.305
19,RRIRYRPPRLPRPRPRPEVAPRP,-0.0541
20,RRIRPRPPRLPRPRPRPRAQPRP,0.33
21,RRIRWRPPRLPRPRPRPKSVPRP,-0.0882
22,RRIRTRPPRLPRPRPRPPQHPRP,0.22
23,RRIRDRPPRLPRPRPRPIPIPRP,-0.0457
24,RRIRMRPPRLPRPRPRPCKDPRP,-0.0302
25,RRIRRRPPRLPRPRPRPQYVPRP,-0.265

row,Sequence,shrunken log2 fold change
1,RRIRMRPPRLPRPRPRPHPTPRP,0.805
2,RRIRNRPPRLPRPRPRPDPPPRP,0.143
3,RRIRLRPPRLPRPRPRPRFVPRP,0.123
4,RRIRHRPPRLPRPRPRPRDQPRP,-0.0907
5,RRIRPRPPRLPRPRPRPLKCPRP,-0.131
6,RRIRIRPPRLPRPRPRPRNMPRP,-0.243
7,RRIRHRPPRLPRPRPRPDNFPRP,-0.0184
8,RRIRTRPPRLPRPRPRPMNMPRP,-0.24
9,RRIRRRPPRLPRPRPRPYFQPRP,-0.189
10,RRIRRRPPRLPRPRPRPGHTPRP,0.274
11,RRIRVRPPRLPRPRPRPTMVPRP,0.0376
12,RRIRLRPPRLPRPRPRPVRKPRP,-0.0647
13,RRIRTRPPRLPRPRPRPNPWPRP,0.0694
14,RRIRNRPPRLPRPRPRPASCPRP,-0.233
15,RRIRIRPPRLPRPRPRPCNFPRP,-0.061
16,RRIRRRPPRLPRPRPRPWNTPRP,-0.214
17,RRIRHRPPRLPRPRPRPDADPRP,0.0435
18,RRIRKRPPRLPRPRPRPFYLPRP,-0.154
19,RRIRYRPPRLPRPRPRPVYFPRP,-1.42
20,RRIRSRPPRLPRPRPRPPRYPRP,-0.0232
21,RRIRARPPRLPRPRPRPVYIPRP,-0.355
22,RRIRIRPPRLPRPRPRPNWYPRP,-0.519
23,RRIRHRPPRLPRPRPRPMDQPRP,-0.0412
24,RRIRHRPPRLPRPRPRPEVLPRP,-0.0421
25,RRIRQRPPRLPRPRPRPSPMPRP,0.0696
